The target in this test is T1, cell surface antigen PSMA on Lncap cell line with high PSMA expression (UniProt Q04609 1-750, limits assumed).
T1 construct: whole, on cells; Lncap is a prostate cancer cell line; also called Lncap cells
Nature of the test: immunofluorescence on Lncap cells (high PSMA expression), FITC marker. The protocol: Immunofluorescence detection was performed on KHL peptides in Lncap cell lines with high PSMA expression and PC3 cell lines with low PSMA expression, using FITC as the fluorescent marker.

From patent US20240076315A1 (ALLIFE MEDICINE ZHUHAI, published 2024) come the findings set out here.

No end group written: not given here.

T1 sequence (Q04609 whole entry): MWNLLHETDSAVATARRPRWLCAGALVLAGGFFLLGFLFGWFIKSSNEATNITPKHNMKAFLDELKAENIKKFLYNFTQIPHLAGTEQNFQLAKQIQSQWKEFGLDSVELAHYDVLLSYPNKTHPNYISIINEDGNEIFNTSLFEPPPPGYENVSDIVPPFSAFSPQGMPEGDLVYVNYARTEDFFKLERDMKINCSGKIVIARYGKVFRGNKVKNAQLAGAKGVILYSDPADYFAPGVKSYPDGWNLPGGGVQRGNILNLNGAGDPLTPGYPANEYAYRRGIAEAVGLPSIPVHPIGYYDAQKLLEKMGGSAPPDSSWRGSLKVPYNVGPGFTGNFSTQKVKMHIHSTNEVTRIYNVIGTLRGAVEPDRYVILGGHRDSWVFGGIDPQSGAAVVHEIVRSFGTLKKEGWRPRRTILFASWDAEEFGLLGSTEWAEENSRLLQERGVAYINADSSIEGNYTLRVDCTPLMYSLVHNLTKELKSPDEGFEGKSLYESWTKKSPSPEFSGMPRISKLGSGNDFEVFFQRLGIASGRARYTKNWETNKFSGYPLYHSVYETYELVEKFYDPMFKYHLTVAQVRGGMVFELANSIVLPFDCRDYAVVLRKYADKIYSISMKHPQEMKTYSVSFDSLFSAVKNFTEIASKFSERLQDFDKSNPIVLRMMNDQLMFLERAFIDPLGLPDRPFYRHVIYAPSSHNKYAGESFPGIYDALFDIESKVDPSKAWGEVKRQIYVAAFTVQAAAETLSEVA

B1: KHL peptide with FITC as the fluorescent marker (peptide)
peptide: KHLHYHSSVRYG
modifications: also: FITC label, attachment site not given here
notes: also called KHL peptide conjugate
For B1, the binding result is “binds”.
